Source: IntAct's records for PubMed 29774127

Legend:
ctnb1_human CTNNB1 = ctnb1_human CTNNB1 (UniProt P35222)
ehmt2_human EHMT2 = ehmt2_human EHMT2 (UniProt Q96KQ7)
setb1_human SETDB1 = setb1_human SETDB1 (UniProt Q15047)

Measured: effect of a mutation on the interaction

Parafibromin (Homo sapiens) (from UniProt Q6P1J9) Y290F;Y293F;Y315F
increasing interaction: ctnb1_human CTNNB1 | ehmt2_human EHMT2 | setb1_human SETDB1 | SETDB1, Q15047-2
